Source: publication PMC10397247
One block for each binder: values may come before it.

Columns and labels:
Conditions in all cases: mean of both orientations
[1] = biological target: T1, Core_NNIN-es_KEEK; assay: two-hybrid library CCmax;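 note: natural log of median RNA to DNA barcode read ratio; higher means stronger binding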
T1 chain: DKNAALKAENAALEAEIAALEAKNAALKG

[2] = biological target: T2, Core_NNNN-es_KKEK; assay: two-hybrid library CCmax;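 note: natural log of median RNA to DNA barcode read ratio; higher means stronger binding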
T2 chain: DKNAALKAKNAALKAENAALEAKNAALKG

[3] = biological target: T3, P2-AA-1HGe-A; assay: two-hybrid library CCmax;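 note: natural log of median RNA to DNA barcode read ratio; higher means stronger binding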
T3 chain: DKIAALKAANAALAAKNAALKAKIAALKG

[4] = biological target: T4, P2-AA-1HGe-D; assay: two-hybrid library CCmax;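 note: natural log of median RNA to DNA barcode read ratio; higher means stronger binding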
T4 chain: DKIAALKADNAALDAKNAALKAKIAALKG

[5] = biological target: T5, P2-AA-1HGe-M; assay: two-hybrid library CCmax;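 note: natural log of median RNA to DNA barcode read ratio; higher means stronger binding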
T5 chain: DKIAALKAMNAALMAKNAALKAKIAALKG

[6] = biological target: T6, P2-AA-1HGe-Q; assay: two-hybrid library CCmax;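 note: natural log of median RNA to DNA barcode read ratio; higher means stronger binding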
T6 chain: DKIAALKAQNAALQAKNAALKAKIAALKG

[7] = biological target: T7, P2-AA-1HGe-S; assay: two-hybrid library CCmax
T7 chain: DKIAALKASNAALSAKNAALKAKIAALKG

[8] = biological target: T8, P2-AA-1HGe-T; assay: two-hybrid library CCmax
T8 chain: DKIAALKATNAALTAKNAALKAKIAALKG

[9] = biological target: T9, P2-AA; assay: two-hybrid library CCmax
T9 chain: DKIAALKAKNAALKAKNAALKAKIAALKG

[10] = biological target: T10, O10; assay: two-hybrid library CC0
T10 chain: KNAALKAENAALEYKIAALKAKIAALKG

[11] = biological target: T11, O11; assay: two-hybrid library CC0
T11 chain: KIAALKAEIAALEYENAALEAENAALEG

[12] = biological target: T12, O12; assay: two-hybrid library CC0
T12 chain: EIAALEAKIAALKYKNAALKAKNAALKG

[13] = biological target: T13, O13; assay: two-hybrid library CC0
T13 chain: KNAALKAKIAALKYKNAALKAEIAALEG

[14] = biological target: T14, O14; assay: two-hybrid library CC0
T14 chain: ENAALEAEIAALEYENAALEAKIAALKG

[15] = biological target: T15, O15; assay: two-hybrid library CC0
T15 chain: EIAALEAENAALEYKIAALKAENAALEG

[16] = biological target: T16, O16; assay: two-hybrid library CC0
T16 chain: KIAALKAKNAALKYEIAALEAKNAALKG

[17] = biological target: T17, O1; assay: two-hybrid library CC0
T17 chain: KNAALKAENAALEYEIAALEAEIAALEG

[18] = biological target: T18, O2; assay: two-hybrid library CC0
T18 chain: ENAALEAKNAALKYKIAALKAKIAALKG

[19] = biological target: T19, O3; assay: two-hybrid library CC0
T19 chain: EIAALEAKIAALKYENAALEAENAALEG

[20] = biological target: T20, O4; assay: two-hybrid library CC0
T20 chain: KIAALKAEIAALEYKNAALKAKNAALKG

[21] = biological target: T21, O5; assay: two-hybrid library CC0
T21 chain: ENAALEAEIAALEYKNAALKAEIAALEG

[22] = biological target: T22, O6; assay: two-hybrid library CC0
T22 chain: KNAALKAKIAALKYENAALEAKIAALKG

[23] = biological target: T23, O7; assay: two-hybrid library CC0
T23 chain: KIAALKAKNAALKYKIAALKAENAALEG

[24] = biological target: T24, O8; assay: two-hybrid library CC0
T24 chain: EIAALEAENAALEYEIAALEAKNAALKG

[25] = biological target: T25, O9; assay: two-hybrid library CC0
T25 chain: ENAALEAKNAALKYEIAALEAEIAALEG

interaction score [1]: 1.39
Binder: DENAALEAKNAALKAKIAALKAENAALEG [Core_NNIN-es_EKKE]

interaction score [2]: 0.00657
Binder: DENAALEAENAALEAKNAALKAENAALEG [Core_NNNN-es_EEKE]

interaction score [3]: 1.85 | interaction score [4]: 1.82 | interaction score [5]: 2.12 | interaction score [6]: 1.88 | interaction score [7]: 2.24 | interaction score [8]: 1.54 | interaction score [9]: 1.57
Binder: DEIAALEAANAALAAENAALEAEIAALEG [P1-AA-1HGe-A]

Binder: KNAALKAENAALEYEIAALEAEIAALEG [O1]
interaction score [10]: -0.97 | interaction score [11]: -2.7 | interaction score [12]: -2.64 | interaction score [13]: -2.57 | interaction score [14]: -2.71 | interaction score [15]: -2.7 | interaction score [16]: -2.65 | interaction score [17]: -2.74 | interaction score [18]: 1.37 | interaction score [19]: -2.76 | interaction score [20]: -2.68 | interaction score [21]: -2.77 | interaction score [22]: -2.76 | interaction score [23]: -2.69 | interaction score [24]: -2.67 | interaction score [25]: -2.49
